The results in this text go back to article PMC5675407, “Sugar analog synthesis by in vitro biocatalytic cascade: A comparison of alternative enzyme complements for dihydroxyacetone phosphate production as a precursor to rare chiral sugar synthesis” (PLoS ONE, 2017).

What all share (test): purified protein
Substrate in data set [1]: Nc1ncnc2c1ncn2[C@@H]1O[C@H](COP(=O)(O)OP(=O)(O)OP(=O)(O)O)[C@@H](O)[C@H]1O
Type of data set: biochemical, Clostridium beijerinckii. The following applies: glycerol in excess, 10 mM MgCl2, 50 mM NaHCO3 pH 9.2, room temperature. From the text:
(§1) HPLC of ADP and ATP on GlpKCb

Substrate in data set [2]: OCC(O)CO
Format: biochemical, Clostridium beijerinckii. The following applies: ATP in excess, 10 mM MgCl2, 50 mM NaHCO3 pH 9.2, room temperature.
Text: as §1

Substrate in data set [3]: Nc1ncnc2c1ncn2[C@@H]1O[C@H](COP(=O)(O)OP(=O)(O)O)[C@@H](O)[C@H]1O
Format: biochemical, Mycolicibacterium smegmatis. The following applies: acetyl phosphate in excess, Mg2+, room temperature, buffer as for glycerol kinase (pH 9.2). From the text: (§2) HPLC of ADP and ATP on AceKMs

Substrate in data set [4]: CC(=O)OP(=O)(O)O
Type of data set: biochemical, Mycolicibacterium smegmatis. The conditions noted are these: ADP in excess, Mg2+, room temperature, buffer as for glycerol kinase (pH 9.2).
Text: as §2

B1: GlpKCb (Clostridium beijerinckii NCIMB 8052) (protein)
chain: MKKYILALDQGTTSSRAIIFDKEQNILGVSQKEFTQIYPNQGWVEHNPLEIWASQYGVLQEVIAKTNITQEEVAAIGITNQRETTIVWDKNTGEPVYNAIVWQCRRTAGIIEELKLDKEFSEYVKENTGLLLDAYFSATKIKWILDNVEGARERAEKGELLFGTVDTWLVWKLTNGKVHVTDYTNASRTMLYNIKELRWDERILEKLNIPKSMLPEVKNSSEVYGYTNLGGTGGVRVPIAGMAGDQQCALFGQTCFEEGSVKNTYGTGCFLLMNTGEKMIHSKNGLVSTIAVGIDGKVQYALEGSVFVGGAVIQWIRDELKLVTDAADTEYFAQKVEDNGGVYVVPAFTGLGAPYWDMYARGAIFGLTRGANRNHIIRAALESIAYQSKDLIDAMQEDAGCKLTRLKVDGGASRNNLLMQFQADITGAEVVRPIITETTALGAAYLAGLAVGFWKSKEEIAEKWAVSQSYSPNLAEEKKEKLYKGWKKAVKRAEGWEEE
notes: recombinant, His-tagged (pDEST17 or pETCC2), E. coli, Ni and size exclusion purified
As to B1, in “purified protein [1]”, the Km (as a rule, the concentration of substrate that gives half-maximal velocity) is 135 ± 16 µM; the kcat (usually the maximal rate divided by the concentration of active sites) is 93 s⁻¹; the kcat/Km – broadly, the second-order rate constant that governs catalysis at low substrate concentration – is 690000 M⁻¹ s⁻¹. Further, in the data set “purified protein [2]”, the Km amounted to 356 ± 27 µM, the kcat was found to be 93 s⁻¹ and the kcat/Km was 260000 M⁻¹ s⁻¹.

B2: AceKMs (Mycolicibacterium smegmatis MC2 155) (protein)
chain: MTVLVVNSGSSSLKYAVVRPASGEFLADGIIEEIGSGAVPDHDAALRAAFDELAAAGLHLEDLDLKAVGHRMVHGGKTFYKPSVVDDELIAKARELSPLAPLHNPPAIKGIEVARKLLPDLPHIAVFDTAFFHDLPAPASTYAIDRELAETWHIKRYGFHGTSHEYVSQQAAIFLDRPLESLNQIVLHLGNGASASAVAGGKAVDTSMGLTPMEGLVMGTRSGDIDPGVIMYLWRTAGMSVDDIESMLNRRSGVLGLGGASDFRKLRELIESGDEHAKLAYDVYIHRLRKYIGAYMAVLGRTDVISFTAGVGENVPPVRRDALAGLGGLGIEIDDALNSAKSDEPRLISTPDSRVTVLVVPTNEELAIARACVGVV
notes: recombinant, His-tagged (pDEST17 or pETCC2), E. coli
As to B2, in “purified protein [3]”, the Km was found to be 113 ± 9 µM, the kcat came out at 1100 s⁻¹ and the kcat/Km was found to be 9.8e+06 M⁻¹ s⁻¹. In the data set “purified protein [4]”, the Km was found to be 390 ± 8 µM, the kcat was 1103 s⁻¹ and the kcat/Km stood at 2.8e+06 M⁻¹ s⁻¹.
